As a reminder, the Kd is the concentration at which binding is half-saturated. The low end stands for higher affinity, the high end for lower affinity. A word on the koff: it is a measure of how fast the partners let go of each other. The term kon denotes a measure of how fast the partners come together. Read a low kon as slow association.

Assay [1] concerns the target T1, extracellular domain (ECD) of human αKlotho, amino acids E34-S981 with C-terminal 6-His tag (R&D Systems … (human, UniProt Q9UEF7 34-981)).
T1 construct: range 34-981; also called αKlotho (aa34-981); target antigen
T1 sequence: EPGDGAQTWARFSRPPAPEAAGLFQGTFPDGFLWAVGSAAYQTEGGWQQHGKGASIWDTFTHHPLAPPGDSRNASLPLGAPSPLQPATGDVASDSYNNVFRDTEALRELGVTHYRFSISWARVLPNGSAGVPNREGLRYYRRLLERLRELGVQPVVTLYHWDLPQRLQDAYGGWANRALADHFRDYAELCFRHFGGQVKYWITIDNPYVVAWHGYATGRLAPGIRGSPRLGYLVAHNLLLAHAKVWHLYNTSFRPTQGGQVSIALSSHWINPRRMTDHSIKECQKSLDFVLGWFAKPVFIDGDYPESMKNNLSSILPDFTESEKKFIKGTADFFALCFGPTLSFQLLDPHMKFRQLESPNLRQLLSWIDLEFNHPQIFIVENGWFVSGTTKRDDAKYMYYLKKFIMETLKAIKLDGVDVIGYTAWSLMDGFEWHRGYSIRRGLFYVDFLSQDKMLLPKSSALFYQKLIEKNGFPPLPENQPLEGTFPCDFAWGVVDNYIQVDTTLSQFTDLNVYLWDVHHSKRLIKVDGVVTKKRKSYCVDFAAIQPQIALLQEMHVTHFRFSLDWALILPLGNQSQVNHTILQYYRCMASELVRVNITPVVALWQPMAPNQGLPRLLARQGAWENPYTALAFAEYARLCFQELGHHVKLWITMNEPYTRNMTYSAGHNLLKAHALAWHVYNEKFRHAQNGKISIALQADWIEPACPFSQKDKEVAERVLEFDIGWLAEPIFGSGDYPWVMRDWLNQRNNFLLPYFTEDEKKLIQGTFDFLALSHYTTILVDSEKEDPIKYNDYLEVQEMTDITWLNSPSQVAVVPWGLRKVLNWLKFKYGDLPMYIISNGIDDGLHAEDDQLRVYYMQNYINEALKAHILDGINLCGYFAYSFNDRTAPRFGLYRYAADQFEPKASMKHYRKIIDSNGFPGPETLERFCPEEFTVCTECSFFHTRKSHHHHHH
Put plainly: SPR, Fab captured by anti-H+L IgG, αKlotho injected at 50 to 6.25 ug/ml, Langmuir fit. The method, then:
Affinity estimates for each of the antibodies were determined by surface plasmon resonance (SPR). Fabs were immobilized using an anti-H+L antibody and serial dilutions of αKlotho were injected.
(Surface plasmon resonance follows binding to a sensor surface in real time, without labels.)

Assay [2] deals with T2, full-length murine βKlotho expressed in HEK293 cells (mouse, UniProt Q99N32 1-1043).
T2 construct: whole, on cells
T2 sequence (looked up): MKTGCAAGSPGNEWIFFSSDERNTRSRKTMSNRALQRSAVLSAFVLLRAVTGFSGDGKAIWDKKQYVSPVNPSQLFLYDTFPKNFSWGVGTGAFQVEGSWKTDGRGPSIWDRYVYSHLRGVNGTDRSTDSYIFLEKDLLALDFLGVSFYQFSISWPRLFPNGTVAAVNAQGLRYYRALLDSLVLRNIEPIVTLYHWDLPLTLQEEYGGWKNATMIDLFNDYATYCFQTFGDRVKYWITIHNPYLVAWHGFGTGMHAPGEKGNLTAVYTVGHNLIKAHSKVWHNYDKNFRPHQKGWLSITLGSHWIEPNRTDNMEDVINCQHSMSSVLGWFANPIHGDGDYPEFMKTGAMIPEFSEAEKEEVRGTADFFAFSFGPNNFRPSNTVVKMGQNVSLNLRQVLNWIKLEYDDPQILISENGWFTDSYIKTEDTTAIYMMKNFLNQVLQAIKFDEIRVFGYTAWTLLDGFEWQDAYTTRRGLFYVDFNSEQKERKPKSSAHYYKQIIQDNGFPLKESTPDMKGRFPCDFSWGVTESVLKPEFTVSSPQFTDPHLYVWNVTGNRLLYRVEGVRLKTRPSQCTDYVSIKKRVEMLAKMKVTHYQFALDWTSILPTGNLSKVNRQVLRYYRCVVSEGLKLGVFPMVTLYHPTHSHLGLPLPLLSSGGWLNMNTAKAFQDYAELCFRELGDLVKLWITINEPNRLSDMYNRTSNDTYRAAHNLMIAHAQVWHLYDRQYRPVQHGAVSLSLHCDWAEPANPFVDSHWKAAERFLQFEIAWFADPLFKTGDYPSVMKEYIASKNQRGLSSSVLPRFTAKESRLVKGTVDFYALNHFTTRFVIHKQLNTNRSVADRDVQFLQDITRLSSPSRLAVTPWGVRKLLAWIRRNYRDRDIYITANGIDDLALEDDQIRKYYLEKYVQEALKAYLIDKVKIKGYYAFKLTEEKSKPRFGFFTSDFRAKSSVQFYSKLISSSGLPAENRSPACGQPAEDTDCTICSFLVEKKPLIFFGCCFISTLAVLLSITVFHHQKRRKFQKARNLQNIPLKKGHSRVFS
Description: immunocytochemistry of transfected HEK293 cells.

B1: sb106 Fab (Fab, V domains shown)
VH: EVQLVESGGGLVQPGGSLRLSCAASGFNISYYSIHWVRQAPGKGLEWVAYISPSYGYTSYADSVKGRFTISADTSKNTAYLQMNSLRAEDTAVYYCARYYVYASHGWAGYGMDYWGQGTLVTVSS
VL: DIQMTQSPSSLSASVGDRVTITCRASQSVSSAVAWYQQKPGKAPKLLIYSASSLYSGVPSRFSGSRSGTDFTLTISSLQPEDFATYYCQQAGYSPITFGQGTKVEIKR
notes: also called Fsb106; clone 48
Consider B1, for which, in assay [1], binding was characterised by a dissociation constant (Kd) of 1.08 nM, the koff came to 0.000389 s⁻¹ and the kon turned out to be 360000 M⁻¹ s⁻¹. In assay [2], the binding result is listed as “no binding (tested: 5 µg/ml)”.

For the origin of these results see patent publication US20190041402A1 (GOVERNING COUNCIL OF THE UNIVERSITY OF TORONTO, published 2019).
